From the nanobody polyreactivity screen of Harvey et al. (2022) come the findings set out here.

A short description of this data set: yeast display, Sf9 membrane polyspecificity reagent, FACS + sequencing; frameworks hold sequencing errors. The procedure, abridged:
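Genes from sorted yeast were amplified by colony PCR, read by MiSeq 2 × 250 sequencing and filtered on CDR length. These cells carried a synthetic nanobody library in Saccharomyces cerevisiae BJ5465 and were sorted by FACS into low and high (top ~1%) gates on anti-HA and streptavidin fluorescence. Polyreactivity is labelled according to the gate of origin.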
“QVQLVESGGGLVQAGGSLRLSCAASGFTFNYYVMGWYRQAPGKEREMVSAISRGGGSTYYADSVKGRFTISRDNAKNTVYLQMNSLKPEDTEVYYCAARPYSYLFFYWGQGTQVTVSS”: the “polyreactivity (PSR sort gate)” value is “high polyreactivity”.
As for “QVQLVESGGGLVQAGGSLRLSCAASGSTILTYVMGWYRQAPGKERELVAAISYSGGRSYYADSVKGRFTISRDTAKNTVYLQMNSLKPEDTAVYYCAAYRVNKSSRTMDYWGQGTQVTVSS”, the entry is “high polyreactivity”; as for “QVQLVESGGCLVQEGGSLRLSCAASGFTFRWYTMGWYRQAPGKERELVASIRYGGGSTYYADSVKGRFTISRDNAKNTVYLQMNSLKPEDTAVYYCAAYVRTYRGYYWKAFDYWGQGTQVTVSS”, “high polyreactivity”.
Turning to “QVQLVESGGGLVQAGGSLRLSCAASGTIFTVYALGWYRQPPGKERELVAGISSGAGTTYADSVKGRFTISRDNAKNTVYLQMNSMKPEDTAVYYCAAYTWDTDHYWYGYVPYDYWGQGTQVTVSS”, the “polyreactivity (PSR sort gate)” value is reported as “low polyreactivity”.
In the case of “QVQLVESGGGLVQAGGSLRLSCAASGSNFTYYALGWYRQAPGKERELVAAISKTGGRTYYADSVKGRFTISRDNAKNTVYLQMNSLKPEDTAVYYWAAEAPWQWYGWLRGYDFCGQGTQVTVSS”, the “polyreactivity (PSR sort gate)” value is “high polyreactivity”.
“QVQLVESGGGLVQAGGSLRLSCAASGRTLGAYAMGWYRQAPGKERELVAAIRWSGSSTYYADSVKGRFTISRDNAKNTVYLQMNSLKPEDTAVYYCAAYWSRVLYGMNYWGQGTQVTVSS”: the “polyreactivity (PSR sort gate)” value is given as “high polyreactivity”.
Turning to “QVQLVESGGGLVQAGGRLRLSCAASGGIFSTYTRGWYRQEPGKERELVAAITTGNSTYYADSVKGRFTISRDNAKNTVYLQMNSLKPEDTAVYYCAADTIGYHYWYDYWGQGTQVTVSS”, the “polyreactivity (PSR sort gate)” value is on record as “low polyreactivity”.
For the sequence “QVQLEESGGGLVQAGGSLRLSCAAYYAMGWYRQAPGKERELVAAISSTGRTNYADSVKGRFTISRDNAKNTVYLQMNSLKPEDTAVYYCNAGDRSGMEYWGQGTQVTVSS”, the “polyreactivity (PSR sort gate)” value is reported as “low polyreactivity”.
Regarding “QVQLVESGGGLVQAGGSLRLSCAASGIIFYRYALGWYRQAPRTERELVAAISSSGTNTYYADSVKGRFTISRDNAKNTVYLQMNSLKPEDTAVYYCNADTLADRSTYDYWGQGTQVNVSS”, the “polyreactivity (PSR sort gate)” value is reported as “low polyreactivity”.
As for “QVQLVESGGGIVQAGGSLRLSCAASGSSINLYAMGWYRQAPGKERELVAAINDDAGSTYYADSVKGRFTISRDNAKNTVYLQMNSLKPEDTAVYYCNAGSRSTEYDYWGQGTQVTVSS”, the entry is “low polyreactivity”; as for “QVQLVESGGGLVQAGGSLRLSCAASGRTISHNVMGWYIKAPGKERELVAAISRNGGRTYYADSVKGRFTISRDNAKNTVYLQMNSLKPEDTAVYYCAKRRSYFLHSYYSYGYWGQGTQVTVSS”, “high polyreactivity”.
For “QVQLVESGGGLVQAGGSLRLSCAASGLIFYRYTMGWYRQAPGKERELVAAITSTGTSTYYADSVKGRFTISRDNAKNTVYLQMNSLKPEDTAVYYCAARYIARGKWDYDYWGQGTQVTVSS”, the “polyreactivity (PSR sort gate)” value is recorded as “high polyreactivity”.
For “QVQLVESGGGLVQAGGSLRLSCAASGSIFRPNALGWYRQAPGKERELVAAITWSGDSTYYADSVKGRFTISRDNAKNTVYLQINSLKPEDTAVYYCAVVSYKVTESGIRMYYWGQGTQVTVSS”, the “polyreactivity (PSR sort gate)” value is reported as “low polyreactivity”.
As for “QVQLVESGGGLVQAGGSLRLSCAASGSIFKKYAMGWYRQAPGKERELFAAITRGTYYADSVKGRFTISRDNAKNTVYFQMNSLKPEDTAVYFCNREYWGRGYYRVRGEYDYWGQGTQVTVSS”, the entry is “low polyreactivity”.
In the case of “QVQLVESGGGLVQAGGSLRLSCAASGSTFKWYAMGLYRQAPGKERELVAAIDSRGGSTYYADSVKGRFTISRDNAKNTVFLQMISLKPEDTAVYYCNIYPHYSFQSHNYWGQGTQVTVSS”, the “polyreactivity (PSR sort gate)” value is recorded as “high polyreactivity”.
On to “QVQLVESGGGLVQAGGSLRLSCAASGSTFYAYAMGWYRQAPGKERELVAAINSVGSTYYADSVKGRFTISRDNAKNTVYLQMNSLKPEDTAVYYCARGVDYPTSQPPYFRHDYWGQGTQVTVSS”, for which the “polyreactivity (PSR sort gate)” value is “low polyreactivity”.
With “QVQLVESGGGLVQAGGSLRLSCAASGYIFINNAMGWYRQAPGKERELVAAISFNSGSTYYADSVKGRFTISRDNAKNTVYLQMNSLKPEDTAVYYCAADYEGWGYDYRGDYWGQGTQVTVSS”, the “polyreactivity (PSR sort gate)” value is given as “low polyreactivity”.
Turning to “QVQLVESGGGLVQAGGSLRLSCAASGRTFLGYTMGWYRQAPGKERELVAAITSGGSTYYADSVKGRFTISRDNAKNPVYLQMNSLKPEDTAVYYCARGYFEQVQYWYDNEYDFWGQGTQVTGSS”, the “polyreactivity (PSR sort gate)” value was “low polyreactivity”.
On to “QVQLVESGGGLVQAGGSLRLNCAASGSIFDDYAMGWYRQAPGKERELVAAINIRTGSTYYADSEKGRFTISRDNAKNTVYLQMNSLKPEDTAVYYCNSVVRGFVRHLDYWGQGTQVTVSS”, for which the “polyreactivity (PSR sort gate)” value is recorded as “low polyreactivity”.
“QVQLVESGGGLVQAGGSLRLSCAASGFTFSYYDMGWYRQAPGKERELVAAISSSASRTYYADSVKGRFTISRDNAKNTVYLQMNSLKPEDTAVYYCAARYSESRTGHLDYWGQGTQVTVSS”: the “polyreactivity (PSR sort gate)” value is reported as “high polyreactivity”.
With “QVQLVESGGGLVQAGGSLRLSCAASGGIFARNVMGWYRQAPGKERELVAAISGSGGSTYYADSVKGRFTISRDNAKNTVYLQMNSLKPEDTAVYYCAARTPGVSVYKDGYWGQGTQVTVTS”, the “polyreactivity (PSR sort gate)” value was “low polyreactivity”.
As for “QVQLVESGGGLVQAGGSLRLSCAASGLTFSYYAMGWYRQAPGKERELVAVISYSGSSTYYADSVKGRFTISRDNAKNTVYLQMNSLKPEDTAVYYCAAYLYPRGKGAYDFYYWGQGTQVTVSA”, the entry is “high polyreactivity”; as for “QVQLVESGGGLVQAGGSLRLSCAASGIIFPGNAMGWNSQAPGKVRELVAAITSSDGSTYYADSVKGRFTISRDNAKNTVYVQMNSLKPEDTALYYCAADFKGLFSSELDYWGQGTQVTVSS”, “low polyreactivity”; as for “QVQLVESGGGLVQAGGSLRLSCAASGRTFVYYTRGWYRPAPGKERELVAAISWNGDDTYYADSVKGRFTISRDNAKNTVYLQMNSLKPEDTAVYYCAKESYTDYDTYYYWGQGTQVTVSS”, “low polyreactivity”.
On to “QVQLEESGGGLVQAGGSLRLSCAASGRTFRYYAMGWSRQAPGKERELVAAISWSGSSTYYADSVKGRFTISRDNAKNTVYLQMNSLKAEDTAVYYCNAKGVRGKYFDYSRVSAYDYWGQGTQVTVSS”, for which the “polyreactivity (PSR sort gate)” value is recorded as “low polyreactivity”.
For the sequence “QVQLQESGGLVQAGGLRLSCAASGSVSYQEAMGWYRQAPGKERELVATISFGANTNYAESVKGRFTISRDNAKISLYLQMNSLQPEDTSLYYWAAECLFDDYYGYWGQGTQVTVSS”, the “polyreactivity (PSR sort gate)” value is “low polyreactivity”.
For the sequence “QVQLVESGGGLVQAGGSLRLSSAASGSTFRFNAKGWYRQAPGKERELVARISTIGGNTFYADSVKGRFTISRDNAKNTVYLQMNSLKTEDTAVYYCATTGGPSCRKYVYWGQGTQVTVSS”, the “polyreactivity (PSR sort gate)” value is “high polyreactivity”.
For the sequence “QVQLVESGGGLVQAGGSLRLSCAASGSTFPQNVMGWYRQAPGKVRELVAAITRSAGSTYYADSVKGRFTISRDNPKNTVYLQMNSLKPEDTAVYNCNTGRQRGSYYYDYWGQGTQVTVSS”, the “polyreactivity (PSR sort gate)” value was “high polyreactivity”.
In the case of “QVQIVESGGGLVQAGGSLRVSCAASGSTFAVYAMGWYRQAPGKEREMVAAISQSGGSTNYADSVKGRFTISRDNAKNTVYLQMNSLKPEDTAVYYCNVDVSRSWAQPYTYDYWGHGTQVTVSS”, the “polyreactivity (PSR sort gate)” value was “low polyreactivity”.
For the sequence “QVQLVESGGGLVQAGGSLRLSCAASGSILYYALGWYRQAPGKESELVATITRGGSTYYADSVKGRFTISRDNAKNTVYLQMNSLKPEDTAVYYCAARRAVRVGYYWHDISSYDYWGQGTQVTVSS”, the “polyreactivity (PSR sort gate)” value is “low polyreactivity”.
Turning to “QVQLVESGGGLVQAGGSLRLSCAASGSTFARYAMGWYRQAPGKERELVAAISANGGITYYADSVKGRFTISRDNAKNTVYLQMNSLKPEDTAVYYCAARKSAYRFYRMNYWGQGTQVTVSS”, the “polyreactivity (PSR sort gate)” value was “high polyreactivity”.
In the case of “QVQLVESAGGLVQAGGSLRLSCADSGRTFAYNVIGWYRQAPGKERELVAGISFGAGTTYYADSVKGRFTISRDNAKNTVYLQMNSLKPEDTAVYYCATRRRGTRYPRGYDYWGQGTQVTVSS”, the “polyreactivity (PSR sort gate)” value was “high polyreactivity”.
For “QVQLVESGGGLVQAGGSLRLSCASSGRIFRSYAMGWYRQAPGKERELVAAISSGGGSTYYADSVKGRFTISRDNAKNTVYLQMNSLKPEDTAVYYCNTDFYYDDVSQAHDYWGQGTQVTVSS”, the “polyreactivity (PSR sort gate)” value is reported as “high polyreactivity”.
“QVQLVESGGGLVQAGVSLRLSCAASGVNAMGWYRQAPGKEREFVAAITSIGGSTYYADSVKGRFTISRDNAKNTVYLQMNSLKPEDTAVYYCNTDRGPVKVSPLYESWGQGTQVTVSS”: the “polyreactivity (PSR sort gate)” value is recorded as “low polyreactivity”.
As to “QVQLVESGGGLVQAGGSLRLSCAASGITFRWNAMGWYRQAPGKERELVAAITTRGGGTYYADSVKGRFTISRDNAKNTVYLQMNSLKPEDTAVYYCGAKKSRYPYNYWGQGTQVTVSS”, the “polyreactivity (PSR sort gate)” value is “high polyreactivity”.
With “QVHLVESGGGLVQAGGSLRLSCAASGGIFYTYAMGWYRQAPGKEREMVAAISWRGGSTYYADSVKGRFTISRDNAKNTVYLQMNSLNPEDSAVYYCNKVTDYYYQIYWSYPYFTPDYFWGQGTQVTVSS”, the “polyreactivity (PSR sort gate)” value was “high polyreactivity”.
Take “QVQLVESGGGLVQAGGSLRLSCAASGFIFPLYAMGWYRKAPGKERELVAAITWRGDTTSYADSVKGRFTISRDNAKNTVYLQMNSLKPEDTAVYYCAAEFYDWWYYGGGEYWGQGTQVTVSS”: the “polyreactivity (PSR sort gate)” value was “high polyreactivity”.
In the case of “QVQLVESWGGLDQAGGSLRLSCAASGIIFQYYAMGWYRQAPGKERELVAAISWSGGSTYYADSVKGRFTISRDNAKNTVYLQMNSLKPEDTAVYYCAARSRSYWPYEGDYWGQGSQVTVSS”, the “polyreactivity (PSR sort gate)” value is given as “low polyreactivity”.
Turning to “QVQLVESGGGLVQAGGSLRLSCAASGFIFARYAMGWYRQAPGKERELVASITRRGGSTYYADSVKGRFTISRDYEKITVYLQMNSLKPEDTAVYYCARPNLLSGDYWGQGTQVTVSS”, the “polyreactivity (PSR sort gate)” value is recorded as “high polyreactivity”.
On to “QVQLVESGGGLVQAGGSLRLSCAASGIIFYLYTIGWYRQAPGKEREFVADISSGTTTYYADSVKGRFTISRDNAKNTVYLQMNSLKPEDTAVYYCNAQYNYYTWKLAYTFDYWGQGTQVTVSS”, for which the “polyreactivity (PSR sort gate)” value is listed as “high polyreactivity”.
